Measurements as given in the supplement of paper PMC10724198.
± gives the standard deviation of the averaged measurements.

Tests used:
Saccharomyces cerevisiae [1] = test: protein stability index of tFT-peptide fusion (C-terminal peptide) (PSI (0-1 scale)); higher = more stable (slower turnover)
Description: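 MPS profiling in S. cerevisiae of the tFT-X12 degron library: putative degron peptides plus stable controls, 12 aa, fused to the C-terminus of a sfGFP-mCherry timer. Cells are FACS-sorted into 8 mCherry/sfGFP bins and deep-sequenced. PSI runs from 0 (unstable) to 1 (stable). Backgrounds are wild type, das1Δ and doa10Δ at 30 °C, and wild type, das1Δ, cdc34-1 and cdc53-1 at 37 °C; 2-3 technical replicates each.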

Saccharomyces cerevisiae [2] = test: as above; details: genetic background: wild type; temperature: 30 C
[3] = genetic background: cdc34-1, temperature: 37 C
[4] = genetic background: cdc53-1, temperature: 37 C
[5] = genetic background: das1 deletion, temperature: 30 C
[6] = genetic background: das1 deletion, temperature: 37 C
[7] = genetic background: doa10 deletion, temperature: 30 C
[8] = genetic background: wild type, temperature: 30 C
[9] = genetic background: wild type, temperature: 37 C
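Note: PSI is a weighted mean of sequencing reads over stability bins, variants kept only with over 10 reads, mCherry proximal and sfGFP distal, peptide attached via GGGS linker.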

Sequence | protein stability index (Saccharomyces cerevisiae [1]; [3]) | protein stability index (Saccharomyces cerevisiae [1]; [4]) | protein stability index (Saccharomyces cerevisiae [1]; [5]) | protein stability index (Saccharomyces cerevisiae [1]; [6]) | protein stability index (Saccharomyces cerevisiae [1]; [7]) | protein stability index (Saccharomyces cerevisiae [1]; [8]) | protein stability index (Saccharomyces cerevisiae [1]; [9]) | protein stability index (Saccharomyces cerevisiae [2])
AFFRCKCYVGTP | 0.568 ± 0.011 | 0.584 ± 0.046 | 0.502 ± 0.017 | 0.598 ± 0.013 | 0.512 ± 0.013 | 0.495 ± 0.0099 | 0.561 ± 0.025 | 0.511 ± 0.057
CKGPPVKFIVLM | 0.614 ± 0.018 | 0.7111 ± 0.0044 | 0.597 ± 0.03 | 0.7359 ± 0.0039 | 0.135 ± 0.0034 | 0.147 ± 0.028 | 0.243 ± 0.023 | 0.225 ± 0.057
VRVLPFCWCIVR | 0.177 ± 0.03 | 0.14 ± 0.0084 | 0.188 ± 0.028 | 0.288 ± 0.005 | 0.263 ± 0.019 | 0.187 ± 0.017 | 0.259 ± 0.046 | 0.274 ± 0.0053
YHRKAILMCTFS | 0.506 ± 0.044 | 0.55 ± 0.011 | 0.443 ± 0.02 | 0.5702 ± 0.0011 | 0.3072 ± 0.00055 | 0.299 ± 0.017 | 0.461 ± 0.021 | 0.443 ± 0.078
PVGLMKRFRLFI | 0.698 ± 0.088 | 0.727 ± 0.02 | 0.615 ± 0.031 | 0.716 ± 0.023 | 0.332 ± 0.012 | 0.364 ± 0.031 | 0.626 ± 0.018 | 0.455 ± 0.058
VGEQEVVGIGGV | 0.674 ± 0.039 | 0.7077 ± 0.0065 | 0.653 ± 0.021 | 0.735 ± 0.046 | 0.642 ± 0.026 | 0.646 ± 0.023 | 0.719 ± 0.03 | 0.695 ± 0.018
GRGGLRVVVWLV | 0.518 ± 0.069 | 0.642 ± 0.016 | 0.496 ± 0.024 | 0.6652 ± 0.0041 | 0.11 ± 0.017 | 0.123 ± 0.022 | 0.143 ± 0.0029 | 0.189 ± 0.011
RLVCPFYIACVW | 0.623 ± 0.012 | 0.649 ± 0.01 | 0.509 ± 0.016 | 0.588 ± 0.014 | 0.468 ± 0.015 | 0.488 ± 0.022 | 0.567 ± 0.031 | 0.516 ± 0.027
YMVSLSFTLVRS | 0.382 ± 0.038 | 0.454 ± 0.054 | 0.32 ± 0.022 | 0.474 ± 0.033 | 0.297 ± 0.024 | 0.333 ± 0.013 | 0.4552 ± 0.0036 | 0.481 ± 0.041
VVCFVVCGFYLG | 0.235 ± 0.018 | 0.316 ± 0.021 | 0.261 ± 0.025 | 0.452 ± 0.011 | 0.224 ± 0.011 | 0.242 ± 0.051 | 0.428 ± 0.024 | 0.205 ± 0.055
YLGSLQVPVHLF | 0.676 ± 0.024 | 0.725 ± 0.062 | 0.639 ± 0.022 | 0.756 ± 0.011 | 0.226 ± 0.013 | 0.255 ± 0.019 | 0.455 ± 0.011 | 0.352 ± 0.011
LCSVWVGIVLLC | 0.156 ± 0.011 | 0.236 ± 0.045 | 0.23 ± 0.02 | 0.313 ± 0.014 | 0.0996 ± 0.0034 | 0.0964 ± 0.013 | 0.107 ± 0.019 | 0.165 ± 0.047
FHFLFLFSLVSV | 0.294 ± 0.074 | 0.316 ± 0.03 | 0.269 ± 0.038 | 0.412 ± 0.017 | 0.293 ± 0.0034 | 0.279 ± 0.012 | 0.37513 ± 0.00036 | 0.416 ± 0.017
GGSKIGFTVGGG | 0.686 ± 0.024 | 0.741 ± 0.017 | 0.645 ± 0.013 | 0.738 ± 0.013 | 0.642 ± 0.018 | 0.664 ± 0.02 | 0.725 ± 0.0018 | 0.721 ± 0.018
TPRQYVVSLSLC | 0.579 ± 0.027 | 0.657 ± 0.033 | 0.587 ± 0.039 | 0.703 ± 0.015 | 0.131 ± 0.0045 | 0.123 ± 0.0062 | 0.227 ± 0.0063 | 0.19 ± 0.067
GFPFLFILYFLC | 0.161 ± 0.03 | 0.257 ± 0.013 | 0.224 ± 0.02 | 0.385 ± 0.0061 | 0.111 ± 0.0087 | 0.0763 ± 0.036 | 0.105 ± 0.0019 | 0.158 ± 0.019
FQLGLVFCVCSG | 0.432 ± 0.0073 | 0.438 ± 0.022 | 0.258 ± 0.041 | 0.469 ± 0.0075 | 0.244 ± 0.0076 | 0.258 ± 0.026 | 0.453 ± 0.016 | 0.367 ± 0.022
FLSFARSSCLWF | 0.678 ± 0.028 | 0.7423 ± 0.0011 | 0.657 ± 0.015 | 0.739 ± 0.014 | 0.676 ± 0.03 | 0.666 ± 0.0085 | 0.7115 ± 0.00098 | 0.748 ± 0.016
GFNIFFFFFFFV | 0.21 ± 0.051 | 0.223 ± 0.035 | 0.202 ± 0.02 | 0.297 ± 0.019 | 0.281 ± 0.0099 | 0.173 ± 0.006 | 0.247 ± 0.021 | 0.326 ± 0.0089
IPHLNCCCCLVR | 0.527 ± 0.013 | 0.497 ± 0.023 | 0.334 ± 0.035 | 0.5878 ± 0.0048 | 0.272 ± 0.0053 | 0.328 ± 0.02 | 0.5503 ± 0.0019 | 0.442 ± 0.052

Sequence | protein stability index (Saccharomyces cerevisiae [1]; [3]) | protein stability index (Saccharomyces cerevisiae [1]; [4]) | protein stability index (Saccharomyces cerevisiae [1]; [5]) | protein stability index (Saccharomyces cerevisiae [1]; [6]) | protein stability index (Saccharomyces cerevisiae [1]; [7]) | protein stability index (Saccharomyces cerevisiae [1]; [8]) | protein stability index (Saccharomyces cerevisiae [1]; [9]) | protein stability index (Saccharomyces cerevisiae [2])
GCVVLNTVAFIC | 0.492 ± 0.0084 | 0.583 ± 0.017 | 0.448 ± 0.025 | 0.625 ± 0.0075 | 0.108 ± 0.0055 | 0.127 ± 0.019 | 0.136 ± 0.018 | 0.167 ± 0.037
TVIVCCHLEVVY | 0.0776 ± 0.07 | 0.0367 ± 0.024 | 0.0294 ± 0.014 | 0.0693 ± 0.013 | 0.0254 ± 0.013 | 0.0249 ± 0.0089 | 0.0685 ± 0.023 | 0.0135 ± 0.0057
AVLFAPPLSSNF | 0.712 ± 0.03 | 0.78169 ± 0.00024 | 0.64 ± 0.014 | 0.7729 ± 0.0067 | 0.657 ± 0.026 | 0.6489 ± 0.0039 | 0.739 ± 0.0078 | 0.729 ± 0.052
VGLWCWSFVLVW | 0.0589 ± 0.018 | 0.0934 ± 0.034 | 0.11 ± 0.03 | 0.189 ± 0.0028 | 0.0842 ± 0.021 | 0.103 ± 0.023 | 0.153 ± 0.0027 | 0.156 ± 0.038
DFWMLLFGIIFA | 0.488 ± 0.041 | 0.521 ± 0.011 | 0.389 ± 0.027 | 0.565 ± 0.033 | 0.387 ± 0.015 | 0.4 ± 0.027 | 0.538 ± 0.017 | 0.449 ± 0.019
YIFLPIALVFFP | 0.435 ± 0.021 | 0.536 ± 0.014 | 0.304 ± 0.037 | 0.543 ± 0.022 | 0.333 ± 0.02 | 0.319 ± 0.014 | 0.488 ± 0.015 | 0.363 ± 0.083
RLHCFSPILCPI | 0.6063 ± 0.0042 | 0.576 ± 0.0073 | 0.434 ± 0.029 | 0.59601 ± 0.00033 | 0.402 ± 0.021 | 0.436 ± 0.017 | 0.579 ± 0.036 | 0.493 ± 0.012
IVLCVFTVDSDF | 0.36 ± 0.0079 | 0.478 ± 0.058 | 0.314 ± 0.024 | 0.5441 ± 0.0044 | 0.266 ± 0.006 | 0.291 ± 0.021 | 0.5126 ± 0.0039 | 0.407 ± 0.0073
VVLVLLCIGRLL | 0.367 ± 0.012 | 0.511 ± 0.026 | 0.305 ± 0.033 | 0.5545 ± 0.0033 | 0.27 ± 0.0062 | 0.3 ± 0.026 | 0.475 ± 0.011 | 0.376 ± 0.0063
FVRVFLRLGVVS | 0.14 ± 0.024 | 0.17 ± 0.039 | 0.194 ± 0.035 | 0.302 ± 0.019 | 0.175 ± 0.0045 | 0.177 ± 0.022 | 0.256 ± 0.0033 | 0.299 ± 0.027
LLTLILRIFVLN | 0.304 ± 0.031 | 0.451 ± 0.0055 | 0.316 ± 0.028 | 0.476 ± 0.028 | 0.144 ± 0.01 | 0.147 ± 0.028 | 0.217 ± 0.037 | 0.225 ± 0.024
VCVLRWAVAPCR | 0.287 ± 0.0041 | 0.342 ± 0.0038 | 0.245 ± 0.035 | 0.429 ± 0.0067 | 0.207 ± 0.0051 | 0.235 ± 0.032 | 0.399 ± 0.013 | 0.356 ± 0.027
SGWGGGTWVKMG | 0.537 ± 0.019 | 0.721 ± 0.046 | 0.662 ± 0.024 | 0.76 ± 0.011 | 0.113 ± 0.013 | 0.12 ± 0.013 | 0.191 ± 0.018 | 0.3093 ± 0.0025
RLIARFKILRCI | 0.259 ± 0.012 | 0.588 ± 0.011 | 0.559 ± 0.012 | 0.635 ± 0.0085 | 0.0618 ± 0.0034 | 0.0662 ± 0.0038 | 0.0702 ± 0.0014 | 0.0979 ± 0.064
FQFTLWRTLLCS | 0.1843 ± 0.00066 | 0.248 ± 0.03 | 0.218 ± 0.026 | 0.3394 ± 0.0027 | 0.113 ± 0.015 | 0.137 ± 0.021 | 0.174 ± 0.0054 | 0.189 ± 0.0077
QITIYPIPLARF | 0.951 ± 0.015 | 0.937 ± 0.0099 | 0.807 ± 0.015 | 0.88 ± 0.0098 | 0.808 ± 0.027 | 0.867 ± 0.015 | 0.8924 ± 0.0076 | 0.79 ± 0.065
CIHMNCSMMIIS | 0.0533 ± 0.045 | 0.084 ± 0.0027 | 0.168 ± 0.0061 | 0.0659 ± 0.029 | 0.169 ± 0.0045 | 0.132 ± 0.036 | 0.0482 ± 0.035 | 0.135 ± 0.0034
SWIKRYEITCIL | 0.543 ± 0.033 | 0.568 ± 0.026 | 0.424 ± 0.044 | 0.5973 ± 0.0036 | 0.363 ± 0.0093 | 0.39 ± 0.0099 | 0.492 ± 0.027 | 0.478 ± 0.015
MSVLAFVCCLSG | 0.3532 ± 0.0026 | 0.311 ± 0.0052 | 0.289 ± 0.033 | 0.393 ± 0.022 | 0.2478 ± 0.0014 | 0.268 ± 0.027 | 0.3585 ± 0.0029 | 0.336 ± 0.0033
